Reference: patent publication US20200283523A1 (WUXI BIOLOGICS IRELAND, published 2020)

Columns and labels:
human CD19 [1] = target: T1, human CD19 (human, UniProt P15391 20-556); experiment: flow cytometry on Ramos cells
T1 construct: whole, on cells; also called CD19 on Ramos cells; CD19 on Raji cells
T1 sequence (looked up): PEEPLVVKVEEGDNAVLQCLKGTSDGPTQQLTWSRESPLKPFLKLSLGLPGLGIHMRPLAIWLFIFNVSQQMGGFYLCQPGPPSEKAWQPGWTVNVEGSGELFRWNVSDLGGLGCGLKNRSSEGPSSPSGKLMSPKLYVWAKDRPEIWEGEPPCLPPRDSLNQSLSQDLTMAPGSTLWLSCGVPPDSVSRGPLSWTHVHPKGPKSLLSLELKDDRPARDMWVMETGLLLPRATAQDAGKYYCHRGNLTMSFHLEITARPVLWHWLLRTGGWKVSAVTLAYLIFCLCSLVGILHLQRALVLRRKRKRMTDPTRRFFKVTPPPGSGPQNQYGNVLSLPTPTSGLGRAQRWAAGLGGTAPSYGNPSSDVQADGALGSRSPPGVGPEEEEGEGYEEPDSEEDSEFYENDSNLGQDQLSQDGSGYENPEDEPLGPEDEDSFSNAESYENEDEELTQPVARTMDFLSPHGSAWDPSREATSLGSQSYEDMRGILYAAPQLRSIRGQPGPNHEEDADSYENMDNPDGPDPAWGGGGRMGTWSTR

human CD3 = target: T2, human CD3 (human, UniProt P07766 23-207); experiment: flow cytometry on Jurkat cells
T2 construct: whole, on cells; On cells CD3 stands as the full CD3/TCR complex; also called CD3 on Jurkat cells
T2 sequence (P07766 23-207): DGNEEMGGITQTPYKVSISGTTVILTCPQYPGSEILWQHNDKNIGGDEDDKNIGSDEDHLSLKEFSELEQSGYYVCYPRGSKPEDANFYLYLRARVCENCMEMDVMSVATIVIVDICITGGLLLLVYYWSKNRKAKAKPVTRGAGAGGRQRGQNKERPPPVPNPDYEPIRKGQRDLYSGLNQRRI

human CD19 [2] = target: T1, human CD19; experiment: cell-based or functional assay

EC50 (human CD19 [1]): 1.8 nM
EC50 (human CD3): 19.3 nM
B1: W3438-T3U4.F16-1.uIgG4.SP (bispecific antibody)
light 1: DIVMTQSPDSLAVSLGERATINCKSSQSLLNSRTRKNYLAWYQQKPGQPPKLLIYWASTRQSGVPDRFSGSGSGTDFTLTISSLQAEDVAVYYCTQSHTLRTFGGGTKVEIKPDIQNPDPAVYQLRDSKSSDKSVCLFTDFDSQTQVSQSKDSDVYITDKCVLDMRSMDFKSNSAVAWSQKSDFACANAFQNSIIPEDTFFPSPESS
heavy 1: QVQLVQSGAEVKKPGSSVKVSCKASGFAFTDYYIHWVRQAPGQGLEWMGWISPGNVNTKYNENFKGRVTITADKSTSTAYMELSSLRSEDTAVYYCARDGYSLYYFDYWGQGTLVTVLEDLKNVFPPEVAVFEPSEAEISHTQKATLVCLATGFYPDHVELSWWVNGKEVHSGVCTDPQPLKEQPALQDSRYALSSRLRVSATFWQNPRNHFRCQVQFYGLSENDEWTQDRAKPVTQIVSAEAWGRYGPPCPPCPAPEFLGGPSVFLFPPKPKDTLMISRTPEVTCVVVDVSQEDPEVQFNWYVDGVEVHNAKTKPREEQFNSTYRVVSVLTVLHQDWLNGKEYKCKVSNKGLPSSIEKTISKAKGQPREPQVYTLPPCQEEMTKNQVSLWCLVKGFYPSDIAVEWESNGQPENNYKTTPPVLDSDGSFFLYSRLTVDKSRWQEGNVFSCSVMHEALHNHYTQKSLSLSLGK
light 2: DIQLTQSPSFLSASVGDRVTITCSASSTVNYMHWYQQKPGKAPKLLIYSTSNLASGVPSRFSGSGSGTEFTLTISSLQPEDFATYYCHQWSSYPYTFGQGTKLEIKRTVAAPSVFIFPPSDEQLKSGTASVVCLLNNFYPREAKVQWKVDNALQSGNSQESVTEQDSKDSTYSLSSTLTLSKADYEKHKVYACEVTHQGLSSPVTKSFNRGEC
heavy 2: QMQLVQSGPEVKKPGTSVKVSCKASGYAFTSYNMYWVRQARGQRLEWIGYIDPYNGDTTYNQKFKGRVTITRDMSTSTAYMELSSLRSEDTAVYYCLTTAYAMDYWGQGTLVTVSSASTKGPSVFPLAPCSRSTSESTAALGCLVKDYFPEPVTVSWNSGALTSGVHTFPAVLQSSGLYSLSSVVTVPSSSLGTKTYTCNVDHKPSNTKVDKRVGGGGSGGGGSQMQLVQSGPEVKKPGTSVKVSCKASGYAFTSYNMYWVRQARGQRLEWIGYIDPYNGDTTYNQKFKGRVTITRDMSTSTAYMELSSLRSEDTAVYYCLTTAYAMDYWGQGTLVTVSSASTKGPSVFPLAPCSRSTSESTAALGCLVKDYFPEPVTVSWNSGALTSGVHTFPAVLQSSGLYSLSSVVTVPSSSLGTKTYTCNVDHKPSNTKVDKRVESKYGPPCPPCPAPEFLGGPSVFLFPPKPKDTLMISRTPEVTCVVVDVSQEDPEVQFNWYVDGVEVHNAKTKPREEQFNSTYRVVSVLTVLHQDWLNGKEYKCKVSNKGLPSSIEKTISKAKGQPREPQVCTLPPSQEEMTKNQVSLSCAVKGFYPSDIAVEWESNGQPENNYKTTPPVLDSDGSFFLVSRLTVDKSRWQEGNVFSCSVMHEALHNHYTQKSLSLSLGK
notes: also called WuXiBody
cytotoxic activity on Raji cells with CD8+ T cells, EC50 (human CD19 [2]): 3.2 nM
